Among the data in publication PMC314469, “Protein Interaction Networks by Proteome Peptide Scanning” (PLoS Biology, 2004) are normalised SPOT signal, Boehringer light units (BLU); mean over the file's lines of this peptide values, retold here.

Sequences and labels used below:
B1: YCL047C 191-204 (peptide)
chain: ILEGKFEPVIPREW
B2: YDR237W 35-48 (peptide)
chain: IDKSKLSPRFPELK
B3: YOL081W 29-42 (peptide)
chain: ILFERILPILPVES
B4: YJL095W 1392-1405 (peptide)
chain: IGKSKSAPPIPEDT
B5: YNL064C 352-365 (peptide)
chain: ILPPRIVPAIPKKA
B6: YDR243C 237-250 (peptide)
chain: IKMSRSPPRPPSLK
B7: YPR189W 306-319 (peptide)
chain: IKYFKKFPKDPLAM

Sho1 SH3 (SHO1_YEAST), P40073, sequence (P40073 295-366): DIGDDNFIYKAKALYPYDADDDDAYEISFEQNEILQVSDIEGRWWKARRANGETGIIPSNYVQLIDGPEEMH

The first experiment has as its target T1, Yhr016c SH3 (YSC84_YEAST), P32793.
T1 chain: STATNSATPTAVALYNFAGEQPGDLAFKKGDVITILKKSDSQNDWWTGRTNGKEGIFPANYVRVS
Briefly: SPOT array.
In the case of B1, the normalised SPOT signal, Boehringer light units (BLU); mean over the file's lines of this peptide is 40.5.
Take B2: the normalised SPOT signal, Boehringer light units (BLU); mean over the file's lines of this peptide came out at 22.5.
Still for that read-out and setting: with B3 the figure was 1500; with B4, 12.5; with B5, 3210.
B6 yielded a normalised SPOT signal, Boehringer light units (BLU); mean over the file's lines of this peptide of 1780.
Same read-out and setting: the value for B7 was 58.6.

The next experiment deals with T2, Myo5 SH3 (MYO5_YEAST), Q04439.
T2 chain: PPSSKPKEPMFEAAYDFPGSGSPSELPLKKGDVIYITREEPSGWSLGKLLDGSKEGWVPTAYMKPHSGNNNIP
Briefly: SPOT array.
Regarding B1, the normalised SPOT signal, Boehringer light units (BLU); mean over the file's lines of this peptide is 93.2.
With B2, the normalised SPOT signal, Boehringer light units (BLU); mean over the file's lines of this peptide is 233.
The same measure, in the same setting: with B3 the figure was 340; with B4, 244; with B5, 3670.
On the same count and under the same terms, the value for B6 was 17700; that for B7 was 237.

A further experiment has as its target T3, Boi2 SH3 (BOI2_YEAST), P39969.
T3 chain: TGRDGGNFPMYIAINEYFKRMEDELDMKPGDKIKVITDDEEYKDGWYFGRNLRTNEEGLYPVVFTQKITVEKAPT
The experiment in a line: SPOT array.
B1 showed a normalised SPOT signal, Boehringer light units (BLU); mean over the file's lines of this peptide of 71.3.
Regarding B2, the normalised SPOT signal, Boehringer light units (BLU); mean over the file's lines of this peptide came out at 10.4.
B3: the normalised SPOT signal, Boehringer light units (BLU); mean over the file's lines of this peptide came to 16.2.
On the same count and under the same terms, the value for B4 was 58.9.
On the same count and under the same terms, with B5 the figure was 29.
B6 showed a normalised SPOT signal, Boehringer light units (BLU); mean over the file's lines of this peptide of 416.
The molecule B7 yielded a normalised SPOT signal, Boehringer light units (BLU); mean over the file's lines of this peptide of 9.4.

A further experiment has as its target T4, Rvs167 SH3 (RV167_YEAST), P39743.
T4 chain: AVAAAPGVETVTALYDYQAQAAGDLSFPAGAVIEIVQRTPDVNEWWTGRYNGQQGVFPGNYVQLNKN
The experiment in a line: SPOT array.
Molecule B1 returned a normalised SPOT signal, Boehringer light units (BLU); mean over the file's lines of this peptide of 80.
Still for that read-out and setting: the value for B2 was 54.9.
Turning to B3, the normalised SPOT signal, Boehringer light units (BLU); mean over the file's lines of this peptide is 457.
Molecule B4 came in with a normalised SPOT signal, Boehringer light units (BLU); mean over the file's lines of this peptide of 26.
For the molecule B5, the normalised SPOT signal, Boehringer light units (BLU); mean over the file's lines of this peptide was found to be 17600.
For B6, the normalised SPOT signal, Boehringer light units (BLU); mean over the file's lines of this peptide worked out at 1150.
Still for that read-out and setting: the value for B7 was 85.2.

The target of another experiment is T5, Boi1 SH3 (BOI1_YEAST), P38041.
T5 chain: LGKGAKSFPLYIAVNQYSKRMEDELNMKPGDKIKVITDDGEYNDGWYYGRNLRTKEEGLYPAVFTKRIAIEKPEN
Briefly: SPOT array.
In the case of B1, the normalised SPOT signal, Boehringer light units (BLU); mean over the file's lines of this peptide worked out at 53.6.
Still for that read-out and setting: the value for B2 was 119.
Same read-out and setting: the value for B3 was 152.
B4 showed a normalised SPOT signal, Boehringer light units (BLU); mean over the file's lines of this peptide of 74.3.
With B5, the normalised SPOT signal, Boehringer light units (BLU); mean over the file's lines of this peptide was found to be 227.
Regarding B6, the normalised SPOT signal, Boehringer light units (BLU); mean over the file's lines of this peptide was 1330.
Take B7: the normalised SPOT signal, Boehringer light units (BLU); mean over the file's lines of this peptide was found to be 132.

Another experiment has as its target Sho1 SH3 (SHO1_YEAST), P40073. The experiment in a line: SPOT array.
The molecule B1 had a normalised SPOT signal, Boehringer light units (BLU); mean over the file's lines of this peptide of 9.5.
On the same count and under the same terms, the value for B2 was 35.5; that for B3 was 5680.
On the same count and under the same terms, with B4 the figure was 6.7; with B5, 38.5.
With B6, the normalised SPOT signal, Boehringer light units (BLU); mean over the file's lines of this peptide worked out at 223.
For B7, the normalised SPOT signal, Boehringer light units (BLU); mean over the file's lines of this peptide worked out at 276.

Another experiment has as its target T6, Yfr024 SH3 (LSB3_YEAST), P43603.
T6 chain: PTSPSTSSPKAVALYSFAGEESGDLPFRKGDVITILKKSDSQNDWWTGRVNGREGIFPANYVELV
The experiment in a line: SPOT array.
Molecule B1 had a normalised SPOT signal, Boehringer light units (BLU); mean over the file's lines of this peptide of 82.5.
B2 came in with a normalised SPOT signal, Boehringer light units (BLU); mean over the file's lines of this peptide of 133.
The molecule B3 yielded a normalised SPOT signal, Boehringer light units (BLU); mean over the file's lines of this peptide of 1840.
Molecule B4 displayed a normalised SPOT signal, Boehringer light units (BLU); mean over the file's lines of this peptide of 42.9.
B5 came in with a normalised SPOT signal, Boehringer light units (BLU); mean over the file's lines of this peptide of 3560.
Molecule B6 displayed a normalised SPOT signal, Boehringer light units (BLU); mean over the file's lines of this peptide of 8250.
In turn, B7 yielded a normalised SPOT signal, Boehringer light units (BLU); mean over the file's lines of this peptide of 304.
